Test results taken from patent US20250361274A1, “PEPTIDE AND PEPTIDE-CONTAINING AGENT” (PEPTIDREAM INC., priority 2022, published 2025).
Numbered stars: 1 amine (or outer) side, 2 acyl side, 3 side chain; on linkers, the order of the positions; unused ones are H or OH. Bridge positions count the residues as written; N and C are the ends. Square brackets hold non-standard residues; d marks the D form. Ends that are not written are not given here. KCOpipzaa = N6-(4-(carboxymethyl)piperazine-1-carbonyl)-L-lysine, O=C(NCCCC[C@H](N[*:1])C(=O)[*:2])N1CCN(CC(=O)[*:3])CC1; Cha4tH = (S)-2-amino-3-((1r,4S)-4-hydroxycyclohexyl)propanoic acid, O=C([C@H](C[C@H]1CC[C@H](O[*:3])CC1)N[*:1])[*:2]; 3Pal(6-Ph) = N[C@@H](Cc1ccc(-c2ccccc2)nc1)C(=O)O; Phe(4-COOH) = N[C@@H](Cc1ccc(C(=O)O)cc1)C(=O)O; NMePhe(4-Me) = CN[C@@H](Cc1ccc(C)cc1)C(=O)O; Bip = N[C@@H](Cc1ccc(-c2ccccc2)cc1)C(=O)O; Phe(4-F) = N[C@@H](Cc1ccc(F)cc1)C(=O)O; Hyp = O=C(O)[C@@H]1C[C@@H](O)CN1; NMeF = CN[C@@H](Cc1ccccc1)C(=O)O; 4Pal = N[C@@H](Cc1ccncc1)C(=O)O; Aad = N[C@@H](CCCC(=O)O)C(=O)O; Cha = N[C@@H](CC1CCCCC1)C(=O)O; Abu = CC[C@H](N)C(=O)O; βAla = NCCC(=O)O

What was measured:
BMP7 = target: T1, BMP7 (Homo sapiens, UniProt P18075); test: BMP7 signal transduction inhibitory activity: SMAD1 phosphorylation by BMP7 stimulus, A549 cells; assay type: cell-based; details: for aLISA BMP7 (10 nM) % inh: peptide conc. in assay 1, 10, 100 nM; for aLISA BMP7: A549 cells; for aLIZA BMP7 (10 nM) % inh: peptide conc. in assay 100, 300, 1000 nM, class symbols
T1 sequence (P18075 293-431): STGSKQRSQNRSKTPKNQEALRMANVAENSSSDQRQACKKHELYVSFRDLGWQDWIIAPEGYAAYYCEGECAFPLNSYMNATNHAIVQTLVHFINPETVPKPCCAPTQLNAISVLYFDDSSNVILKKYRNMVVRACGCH
Experimental: In the present Example, BMP7 signal transduction inhibitory activity of each peptide consisting of an amino acid sequence set forth in any of SEQ ID NOs: 5 to 240 and 243 to 421 synthesized in Example 10 was verified by phosphorylation of SMAD1 caused by BMP7 stimulus. The evaluation was performed using 10 nM of BMP7 instead of BMP 4. Regarding SEQ ID NOs: 5 to 240, the concentrations of the peptides synthesized in the same manner as in Example 2 (shown as 2 in the row of Synthesis) were 1 nM, 10 nM, and 100 nM, and the concentrations of the peptides synthesized in the same manner as in Example 1 (shown as 1 in the row of Synthesis) were 10 nM, 100 nM, and 1,000 nM, similarly with Example 11. […] Regarding SEQ ID NOs: 243 to 273 and SEQ ID NOs: 299 to 321, the test was performed at the concentrations (10, 100, 1,000 nM) described in Table 6. […] Regarding SEQ ID NOs: 274 to 298, the test was performed at the concentrations (100, 300, 1,000 nM) described in Table 6. […] Regarding SEQ ID NOs: 322 to 370 and SEQ ID NOs: 393 to 421, the test was performed at the concentrations (1, 10, 100 nM). […] Regarding SEQ ID NOs: 371 to 391, the test was performed at the concentrations (10, 30, 90 nM). […] The evaluation tests of the signal transduction inhibitory activities of SEQ ID NOs: 87, 177, and 181 are as follows. Specifically, the inhibitory activity of BMP4 was evaluated in the same manner as in Example 11 that used A549 cells. Eight concentrations of the peptides were used at a common ratio of 1/3 starting from 2 nM. The inhibitory activity of BMP7 was evaluated in the same manner as in Example 12. Eight concentrations of the peptides were used at a common ratio of 1/3 starting from 100 nM. Note that recombinant Human Noggin Protein (R&D) as a positive control was used at the same concentration as that of the peptide. […] The inhibitory activity of BMP7 was evaluated using eight concentrations of the peptides at a common ratio of 1/3 starting from 1,000 nM in the same manner as in Example 12.

BMP4 = target: T2, BMP4 (Homo sapiens, UniProt P12644); test: BMP4 signal transduction inhibitory activity: SMAD1 phosphorylation by BMP4 stimulus, AlphaLISA SureFire, A549 cells; assay type: cell-based; details: for aLISA BMP4 (0.2 nM) % inh: peptide conc. in assay 0.2, 2, 20 nM; for aLISA BMP4: A549 cells; for aLIZA BMP4 (0.2 nM) % inh: peptide conc. in assay 0.02, 0.2, 2 nM, class symbols
T2 sequence (P12644 293-408): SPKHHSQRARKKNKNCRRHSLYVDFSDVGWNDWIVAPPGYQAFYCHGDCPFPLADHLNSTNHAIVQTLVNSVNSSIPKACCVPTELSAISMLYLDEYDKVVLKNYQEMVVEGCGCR
Experimental: In the present Example, a BMP4 signal transduction inhibitory activity of each peptide consisting of an amino acid sequence set forth in any of SEQ ID NOs: 5 to 240 and 243 to 421 synthesized in Example 10 was verified by phosphorylation of SMAD1 caused by BMP4 stimulus. A549 cells were cultured in MEM (Thermo Fisher Scientific) containing 10% FBS (Thermo Fisher Scientific), 1×Non-essential amino acids (Thermo Fisher Scientific), and 50 μg/mL Gentamicin. After TrypLE (Gibco) was used to peel the cells, seeding was performed in a 96-well plate for adhesion cells so that the number of cells would be 20,000 per well, followed by culturing for 48 hours. After the cells were cultured as described above, the culture medium was replaced with a peptide solution or recombinant Human Noggin Protein (R&D) solution as a positive control diluted to various concentrations in a nutrition-starved culture medium containing 0.1% BSA (Sigma) instead of FBS Thirty minutes after culturing, […], to stimulate it for 60 minutes. The culture medium was removed and the cells were lysed with Lysis Buffer provided with AlphaLISA (registered trademark) SureFire (registered trademark) Ultra SMAD1 (p-[…]/465) Assay kit (PerkinElmer). According to the protocol of the kit, a signal was detected using SpectraMax (registered trademark) Paradigm (registered trademark) multimode microplate reader (Molecular Devices). The obtained signal was analysed using GraphPad Prism (GraphPad Software). The % inhibition was calculated by considering non-stimulation as 100% inhibition and BMP stimulation only as 0% inhibition. Regarding SEQ ID NOs: 5 to 187, the concentrations of the peptides synthesized in the same manner as in Example 2 (shown as 2 in the row of Synthesis) were 0.02 nM, 0.2 nM, and 2 nM, and the concentrations of the peptides synthesized in the same manner as in Example 1 (shown as 1 in the row of Synthesis) were 0.2 nM, 2 nM, and 20 nM. The evaluation results were based on the results of evaluation using the peptides synthesized in the same manner as in Example 2. […] Regarding SEQ ID NOs: 243 to 321, the test was performed at the concentrations described in Table 6. […] Regarding SEQ ID NOs: 322 to 421, the test was performed at the concentrations described in Table 7. […] The evaluation tests of the signal transduction inhibitory activities of SEQ ID NOs: 87, 177, and 181 are as follows. Specifically, the inhibitory activity of BMP4 was evaluated in the same manner as in Example 11 that used A549 cells. Eight concentrations of the peptides were used at a common ratio of 1/3 starting from 2 nM. The inhibitory activity of BMP7 was evaluated in the same manner as in Example 12. Eight concentrations of the peptides were used at a common ratio of 1/3 starting from 100 nM. Note that recombinant Human Noggin Protein (R&D) as a positive control was used at the same concentration as that of the peptide. […] The inhibitory activity of BMP7 was evaluated using eight concentrations of the peptides at a common ratio of 1/3 starting from 1,000 nM in the same manner as in Example 12.

[1] = SMAD1 phosphorylation, BMP7 10 nM
[2] = SMAD1 phosphorylation, BMP4 0.2 nM
[3] = 10 nM BMP7, peptides of Synthesis 2, peptide 1, 10, 100 nM
[4] = SMAD1 phosphorylation, peptides of Synthesis 2, peptide 0.02, 0.2, 2 nM

366 (FG[NMeF]G[Bip]GDE[Cha][Aad][NMeF]LHCG-NH2; not fully specified (N-terminus, bridges)) [compound 366]
aLISA BMP7 (10 nM) % inh (BMP7; [1]): D (showed less than 30% of inhibitory activity in 10 nM-addition zone and showed 30% or more of inhibitory activity in 100 nM-addition zone) | aLISA BMP4 (0.2 nM) % inh (BMP4; [2]): ND (the inhibitory activity was less than 30% at the maximum concentration evaluated)

419 (FG[NMeF]G[3Pal(6-Ph)]GDE[Cha][Aad][NMeF]L[Abu]C[βAla][dE]) [compound 419]
aLISA BMP7 (10 nM) % inh (BMP7; BMP7 10 nM stimulus): D (showed less than 30% of inhibitory activity in 10 nM-addition zone and showed 30% or more of inhibitory activity in 100 nM-addition zone) | aLISA BMP4 (0.2 nM) % inh (BMP4; BMP4 0.2 nM stimulus): ND (the inhibitory activity was less than 30% at the maximum concentration evaluated)

38 ({CH2CO}-A[KCOpipzaa]VYVDK[Bip]PYP[Bip]Y[Phe(4-COOH)][Phe(4-COOH)]SCG-NH2; thioether N-17; not fully specified) [compound 38]
aLISA BMP7 (BMP7; [3]): ND (the inhibitory activity was less than 30% at the maximum concentration evaluated) | aLISA BMP4 (BMP4; [4]): A (showed an inhibitory activity of 50% or more in a zone to which the peptide was added to in an amount of 0.2 nM)

278 (E[KCOpipzaa]V[Phe(4-COOH)]V[KCOpipzaa]R[3Pal(6-Ph)][KCOpipzaa]Y[Hyp][Bip][4Pal][Phe(4-COOH)][Phe(4-COOH)]SCG-NH2; not fully specified) [compound 278]
aLIZA BMP7 (10 nM) % inh (BMP7; BMP7 10 nM stimulus): ND (the inhibitory activity was less than 30% at the maximum concentration evaluated) | aLIZA BMP4 (0.2 nM) % inh (BMP4; BMP4 0.2 nM stimulus): C (showed less than 30% of inhibitory activity in 0.2 nM-addition zone and showed 30% or more of inhibitory activity in 2 nM-addition zone)

398 ([Phe(4-F)]G[NMePhe(4-Me)]G[Bip]GDD[Cha]A[NMePhe(4-Me)]LHCG-NH2; not fully specified) [compound 398]
aLISA BMP7 (10 nM) % inh (BMP7; BMP7 10 nM stimulus): D (showed less than 30% of inhibitory activity in 10 nM-addition zone and showed 30% or more of inhibitory activity in 100 nM-addition zone) | aLISA BMP4 (0.2 nM) % inh (BMP4; BMP4 0.2 nM stimulus): A (showed less than 30% of inhibitory activity in 2 nM-peptide-addition zone and showed 30% or more of inhibitory activity in 20 nM-addition zone)

394 (FG[NMeF]G[Bip]GDD[Cha]A[NMePhe(4-Me)]LHCG-NH2; not fully specified) [compound 394]
aLISA BMP7 (10 nM) % inh (BMP7; BMP7 10 nM stimulus): D (showed less than 30% of inhibitory activity in 10 nM-addition zone and showed 30% or more of inhibitory activity in 100 nM-addition zone) | aLISA BMP4 (0.2 nM) % inh (BMP4; BMP4 0.2 nM stimulus): ND (the inhibitory activity was less than 30% at the maximum concentration evaluated)

294 (ERV[Phe(4-COOH)][Cha4tH][KCOpipzaa]R[3Pal(6-Ph)][KCOpipzaa]Y[Hyp][Bip]Y[Phe(4-COOH)][Phe(4-COOH)]SCG-NH2; not fully specified) [compound 294]
aLIZA BMP7 (10 nM) % inh (BMP7; BMP7 10 nM stimulus): F (showed 30% or more of inhibitory activity in 100 nM-addition zone) | aLIZA BMP4 (0.2 nM) % inh (BMP4; BMP4 0.2 nM stimulus): B (showed less than 30% of inhibitory activity in 0.02 nM-addition zone and showed 30% or more of inhibitory activity in 0.2 nM-addition zone)

337 (FG[NMeF]G[Bip]GDD[Cha][Aad][NMeF]LHCG-NH2; not fully specified (N-terminus, bridges)) [compound 337]
aLISA BMP7 (10 nM) % inh (BMP7; [1]): D (showed less than 30% of inhibitory activity in 10 nM-addition zone and showed 30% or more of inhibitory activity in 100 nM-addition zone) | aLISA BMP4 (0.2 nM) % inh (BMP4; [2]): ND (the inhibitory activity was less than 30% at the maximum concentration evaluated)

37 ({CH2CO}-AK(Ac)VYVDK[Bip]PYP[Bip]Y[Phe(4-COOH)][Phe(4-COOH)]SCG-NH2; thioether N-17; not fully specified) [compound 37]
aLISA BMP7 (BMP7; [3]): ND (the inhibitory activity was less than 30% at the maximum concentration evaluated) | aLISA BMP4 (BMP4; [4]): A (showed an inhibitory activity of 50% or more in a zone to which the peptide was added to in an amount of 0.2 nM)

29 ({CH2CO}-ARVYVDR[3Pal(6-Ph)]PYP[Bip]Y[Phe(4-COOH)][Phe(4-COOH)]SCG-NH2; thioether N-17; not fully specified) [compound 29]
aLISA BMP7 (BMP7; [3]): ND (the inhibitory activity was less than 30% at the maximum concentration evaluated) | aLISA BMP4 (BMP4; [4]): A (showed an inhibitory activity of 50% or more in a zone to which the peptide was added to in an amount of 0.2 nM)

131 ({CH2CO}-ERVYDDR[Bip]PYV[Bip]Y[Phe(4-COOH)][Phe(4-COOH)]SCG-NH2; thioether N-17; not fully specified) [compound 131]
aLISA BMP7 (BMP7; inhibition of SMAD1 phosphorylation by BMP7 stimulus, peptides of Synthesis 1, classes E, F, ND): F (showed less than 50% of inhibitory activity in 10 nM-addition zone and showed 50% or more of inhibitory activity in 100 nM-addition zone) | aLISA BMP4 (BMP4; inhibition of SMAD1 phosphorylation by BMP4 stimulus, peptides of Synthesis 1, classes D-F, ND): D (showed 50% or more of inhibitory activity in 0.2 nM-addition zone)

410 (FG[NMeF]G[3Pal(6-Ph)]GDE[Cha][Aad][NMeF]L[Phe(4-COOH)]C-NH2; not fully specified) [compound 410]
aLISA BMP7 (10 nM) % inh (BMP7; BMP7 10 nM stimulus): D (showed less than 30% of inhibitory activity in 10 nM-addition zone and showed 30% or more of inhibitory activity in 100 nM-addition zone) | aLISA BMP4 (0.2 nM) % inh (BMP4; BMP4 0.2 nM stimulus): ND (the inhibitory activity was less than 30% at the maximum concentration evaluated)
